The target in the assay is CXC chemokine receptor 2 (CXCR2) (UniProt P25025). Briefly: cell-based or functional assay.

A value given as a limit tells only on which side of the number the result lay.

UniProt P25025, sequence (P25025 whole entry): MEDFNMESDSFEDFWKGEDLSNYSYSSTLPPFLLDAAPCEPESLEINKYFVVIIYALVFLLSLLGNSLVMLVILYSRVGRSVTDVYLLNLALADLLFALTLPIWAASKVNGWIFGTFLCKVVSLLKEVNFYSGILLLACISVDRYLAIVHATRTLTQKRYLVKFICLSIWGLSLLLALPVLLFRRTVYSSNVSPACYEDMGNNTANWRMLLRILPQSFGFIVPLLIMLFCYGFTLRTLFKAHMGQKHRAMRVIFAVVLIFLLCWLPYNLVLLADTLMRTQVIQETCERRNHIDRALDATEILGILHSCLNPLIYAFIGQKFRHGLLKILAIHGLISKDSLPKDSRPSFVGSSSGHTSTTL

“IL-8 (from UniProt P10145 28-99) (ligand)” displayed a chemotactic response in Transwell migration assays above 500%.

Turning to UL146 (ligand), the chemotactic response in Transwell migration assays is above 500%.
